pKd: −log10 of the molar value.
How the values were obtained:
[1] = molecular target: human BCMA antigen (Cat #:BCA-H522y, ACRO) (human) (UniProt Q02223); assay: SPR (BIAcore 8K), antibody captured by anti-human Fc on CM5 chip, antigen as analyte
[2] = molecular target: human CD3D&E protein (Cat #: CT038-H2508H, Sino biological) (human) (UniProt P04234); assay: as above
[3] = molecular target: human CD3 complex on Jurkat cells (human) (UniProt P07766); assay: FACS on Jurkat cells, PE goat anti-human IgG (H+L) secondary antibody, MFI
[4] = molecular target: human BCMA expressed on HEK293A cells (human) (UniProt Q02223); assay: FACS on HEK293A/human BCMA cells, PE goat anti-human IgG (H+L) secondary antibody, MFI
[5] = molecular target: mouse BCMA expressed on HEK293A cells (mouse) (UniProt O88472); assay: FACS on HEK293A/mouse BCMA cells, PE goat anti-human IgG (H+L) secondary antibody, MFI
[6] = molecular target: monkey BCMA expressed on HEK293A cells (monkey); assay: FACS on HEK293A/monkey BCMA cells, PE goat anti-human IgG (H+L) secondary antibody, MFI
[7] = molecular target: human GPRC5D antigen (Cat #:HM05P, Kactus Biosystems) (human) (UniProt Q9NZD1); assay: SPR (BIAcore 8K), antibody captured by anti-human Fc on CM5 chip, antigen as analyte
[8] = molecular target: human GPRC5D expressed on HEK293T cells (human) (UniProt Q9NZD1); assay: FACS on HEK293T/human GPRC5D cells, PE goat anti-human IgG (H+L) secondary antibody, MFI
human GPRC5D expressed on HEK293T cells (human), sequence (Q9NZD1 whole entry): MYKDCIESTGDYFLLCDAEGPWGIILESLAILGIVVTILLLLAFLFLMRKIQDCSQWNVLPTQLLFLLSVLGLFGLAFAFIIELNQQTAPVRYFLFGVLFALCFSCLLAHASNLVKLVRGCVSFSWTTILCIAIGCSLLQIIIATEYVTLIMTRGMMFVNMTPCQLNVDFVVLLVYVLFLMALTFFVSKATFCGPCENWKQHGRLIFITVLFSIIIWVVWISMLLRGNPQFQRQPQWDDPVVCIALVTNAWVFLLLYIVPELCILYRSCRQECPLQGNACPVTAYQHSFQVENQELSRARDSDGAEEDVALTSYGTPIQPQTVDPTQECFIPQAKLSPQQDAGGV

human CD3D&E protein (Cat #: CT038-H2508H, Sino biological) (human), sequence (P04234 22-105, chain 1 of 2): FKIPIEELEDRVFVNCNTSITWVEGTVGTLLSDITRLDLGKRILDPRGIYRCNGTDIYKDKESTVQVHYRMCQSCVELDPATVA
human CD3D&E protein (Cat #: CT038-H2508H, Sino biological) (human), sequence (P07766 23-126, chain 2 of 2, further chain): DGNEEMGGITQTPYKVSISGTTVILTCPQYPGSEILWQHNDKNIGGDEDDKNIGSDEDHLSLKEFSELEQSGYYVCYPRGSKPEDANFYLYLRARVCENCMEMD
human BCMA antigen (Cat #:BCA-H522y, ACRO) (human), sequence (Q02223 1-54 limits assumed): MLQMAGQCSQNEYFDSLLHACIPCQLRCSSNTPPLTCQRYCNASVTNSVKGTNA
mouse BCMA expressed on HEK293A cells (mouse), sequence (O88472 whole entry): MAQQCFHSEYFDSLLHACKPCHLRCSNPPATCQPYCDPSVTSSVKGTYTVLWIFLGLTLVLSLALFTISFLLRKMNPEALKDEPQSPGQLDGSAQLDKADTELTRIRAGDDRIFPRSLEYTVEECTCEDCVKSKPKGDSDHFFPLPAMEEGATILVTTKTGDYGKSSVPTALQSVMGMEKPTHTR
human GPRC5D antigen (Cat #:HM05P, Kactus Biosystems) (human), sequence (Q9NZD1 whole entry): as the sequence (Q9NZD1 whole entry) above
human BCMA expressed on HEK293A cells (human), sequence (Q02223 whole entry): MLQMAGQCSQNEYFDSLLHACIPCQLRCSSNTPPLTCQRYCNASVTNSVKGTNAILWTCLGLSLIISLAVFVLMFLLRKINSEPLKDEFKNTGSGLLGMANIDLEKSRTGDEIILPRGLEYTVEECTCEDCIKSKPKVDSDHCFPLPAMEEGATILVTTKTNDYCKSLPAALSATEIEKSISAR
monkey BCMA expressed on HEK293A cells (monkey), sequence (Q02223 other isoform, or with tags, fused parts or gaps): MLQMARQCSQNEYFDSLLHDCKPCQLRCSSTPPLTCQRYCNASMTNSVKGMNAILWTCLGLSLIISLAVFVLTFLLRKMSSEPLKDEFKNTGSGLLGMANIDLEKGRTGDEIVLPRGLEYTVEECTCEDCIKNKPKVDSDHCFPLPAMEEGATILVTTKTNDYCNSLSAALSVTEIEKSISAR
human CD3 complex on Jurkat cells (human), sequence (P07766 23-207, chain 1 of 4): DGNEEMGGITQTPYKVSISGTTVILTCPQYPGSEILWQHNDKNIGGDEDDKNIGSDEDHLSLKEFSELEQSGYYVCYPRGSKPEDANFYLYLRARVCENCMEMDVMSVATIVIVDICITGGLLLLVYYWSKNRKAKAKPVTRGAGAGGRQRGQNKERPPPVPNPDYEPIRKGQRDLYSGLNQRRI
human CD3 complex on Jurkat cells (human), sequence (P04234 22-171, chain 2 of 4, further chain): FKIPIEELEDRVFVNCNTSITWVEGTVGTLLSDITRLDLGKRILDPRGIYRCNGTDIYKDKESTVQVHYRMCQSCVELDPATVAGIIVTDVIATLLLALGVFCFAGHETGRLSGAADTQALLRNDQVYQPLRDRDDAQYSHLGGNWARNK
human CD3 complex on Jurkat cells (human), sequence (P09693 23-182, chain 3 of 4, further chain): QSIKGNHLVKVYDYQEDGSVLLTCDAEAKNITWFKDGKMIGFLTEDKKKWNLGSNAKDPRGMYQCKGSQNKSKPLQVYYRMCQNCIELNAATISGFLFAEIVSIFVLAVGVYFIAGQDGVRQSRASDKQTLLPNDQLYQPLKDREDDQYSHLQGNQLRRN
human CD3 complex on Jurkat cells (human), sequence (P20963 22-164, chain 4 of 4, further chain): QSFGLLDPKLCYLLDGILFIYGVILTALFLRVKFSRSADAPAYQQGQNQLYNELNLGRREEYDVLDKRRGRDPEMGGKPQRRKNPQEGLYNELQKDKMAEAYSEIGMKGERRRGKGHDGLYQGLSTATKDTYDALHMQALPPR

Row | Substance | pKd [1] | koff [1] [s⁻¹] | kon [1] [M⁻¹ s⁻¹] | pKd [2] | koff [2] [s⁻¹] | kon [2] [M⁻¹ s⁻¹] | EC50 (read off the curve) [3] [µg/mL] | EC50 (read off the curve) [4] [µg/mL] | EC50 (read off the curve) [5] [µg/mL] | EC50 (read off the curve) [6] [µg/mL] | pKd [7] | EC50 (read off the curve) [8] [µg/mL]
1 | EM801 (bi-specific BCMA×CD3 antibody) (bispecific antibody) | 9.00 | 0.00227 | 2.28e+06 | 7.39 | 0.00757 | 185000 | 0.7 | 0.07 | 0.2 | 0.1 |  | 
2 | JNJ-64407564 (bi-specific GPRC5D×CD3 antibody) (bispecific antibody) |  |  |  |  |  |  |  |  |  |  | 8.38 | 0.1
